# Data: PMC8225817, “The mineralocorticoid receptor leads to increased expression of EGFR and T-type calcium channels that support HL-1 cell hypertrophy”
# Where a chain is given by its changes, count along the chain named.
# B1: mMRE (-216G/-191C) (dsDNA)
# DNA 1: GCAGCAGCCTCCGCCCCCCGCACGGTGTGAGCGCCCGCCGCGGCCGAGGCGGCCGGAGTCCCGAG
# DNA 2: CTCGGGACTCCGGCCGCCTCGGCCGCGGCGGGCGCTCACACCGTGCGGGGGGCGGAGGCTGCTGC
# B2: mMRE (-216G/-191A) (dsDNA)
# DNA 1: B1 DNA 1 with C38A
# DNA 2: B1 DNA 2 with G28T
# Experiments:
# [1] = molecular target: T1, rhSP1 (specificity protein 1) (human, UniProt P08047 1-785); assay: EMSA; 10 mM Tris, 50 mM KCl, 5 mM MgCl2, 1 mM DTT, 5% glycerol, 1 mg/ml poly(dI-dC), 5 fmol probe, 30 min room temperature; pH not stated; conditions: protein: commercial; label: biotin
# T1 sequence (P08047 whole entry): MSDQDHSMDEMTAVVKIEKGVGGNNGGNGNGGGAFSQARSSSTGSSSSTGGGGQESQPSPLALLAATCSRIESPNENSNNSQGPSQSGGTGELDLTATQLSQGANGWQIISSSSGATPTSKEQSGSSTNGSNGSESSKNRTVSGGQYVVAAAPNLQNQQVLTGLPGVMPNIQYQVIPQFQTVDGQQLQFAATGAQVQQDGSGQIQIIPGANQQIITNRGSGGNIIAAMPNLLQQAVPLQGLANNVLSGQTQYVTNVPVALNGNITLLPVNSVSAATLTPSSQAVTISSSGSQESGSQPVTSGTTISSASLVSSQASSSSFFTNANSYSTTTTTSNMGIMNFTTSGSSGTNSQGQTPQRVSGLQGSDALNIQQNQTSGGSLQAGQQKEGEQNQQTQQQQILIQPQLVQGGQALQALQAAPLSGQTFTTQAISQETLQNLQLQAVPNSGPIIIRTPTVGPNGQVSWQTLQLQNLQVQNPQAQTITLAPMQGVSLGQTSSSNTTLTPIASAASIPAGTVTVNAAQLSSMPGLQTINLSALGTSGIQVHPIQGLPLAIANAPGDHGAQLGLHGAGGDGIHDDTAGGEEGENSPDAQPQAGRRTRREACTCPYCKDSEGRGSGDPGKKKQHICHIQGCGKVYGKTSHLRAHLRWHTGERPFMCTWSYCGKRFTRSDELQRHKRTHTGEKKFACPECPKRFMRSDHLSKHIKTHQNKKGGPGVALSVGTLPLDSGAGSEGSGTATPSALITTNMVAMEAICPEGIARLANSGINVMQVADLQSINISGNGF
# [2] = molecular target: T1, rhSP1 (specificity protein 1); assay: EMSA; same as -216G/-191C; 10 mM Tris, 50 mM KCl, 5 mM MgCl2, 1 mM DTT, 5% glycerol, 1 mg/ml poly(dI-dC), 5 fmol probe, 30 min room temperature; pH not stated; conditions: protein: commercial; label: biotin
binder,measurement,setting,value
B1,binding result,[1],binds
B2,binding result,[2],binds
